Test system: CyCAST TnsD (with TnsAB, TnsC) (Cyanothece sp. PCC 7425)
Experiment: cell_activity
Conditions: without TniQ; 0.0006% with TniQ; E. coli

pTarget with tRNA-Leu was tested, and the activity was 0.008 % insertion.

From patent US20260015631
